T1: O3-bA
T1 chain: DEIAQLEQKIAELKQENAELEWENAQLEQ

T2: O4-bA
T2 chain: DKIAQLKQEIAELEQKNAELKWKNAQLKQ

T3: O5-bA
T3 chain: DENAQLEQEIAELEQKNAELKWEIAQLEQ

T4: O6-bA
T4 chain: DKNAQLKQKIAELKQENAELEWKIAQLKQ

T5: O7-bA
T5 chain: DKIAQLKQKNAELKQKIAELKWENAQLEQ

T6: O8-bA
T6 chain: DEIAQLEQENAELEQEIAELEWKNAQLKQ

T7: O9-bA
T7 chain: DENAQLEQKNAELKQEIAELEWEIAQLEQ

T8: P8bHq
T8 chain: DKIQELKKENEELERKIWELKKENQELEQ

T9: P9bHq
T9 chain: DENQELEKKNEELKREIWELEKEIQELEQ


What was measured:
Assay in all cases: two-hybrid library CCNG1;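 further: natural log of median RNA to DNA barcode read ratio; higher means stronger binding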
O3-bA = molecular target: T1, O3-bA
O4-bA = molecular target: T2, O4-bA
O5-bA = molecular target: T3, O5-bA
O6-bA = molecular target: T4, O6-bA
O7-bA = molecular target: T5, O7-bA
O8-bA = molecular target: T6, O8-bA
O9-bA = molecular target: T7, O9-bA
P8bHq = molecular target: T8, P8bHq
P9bHq = molecular target: T9, P9bHq

| Binder | interaction score (O3-bA) | interaction score (O4-bA) | interaction score (O5-bA) | interaction score (O6-bA) | interaction score (O7-bA) | interaction score (O8-bA) | interaction score (O9-bA) | interaction score (P8bHq) | interaction score (P9bHq) |
| --- | --- | --- | --- | --- | --- | --- | --- | --- | --- |
| DEIAQLEQKIAELKQENAELEWENAQLEQ [O3-bA] | -0.685 | 2.34 | -0.75 | -0.618 | -0.831 | -1.12 | -0.712 |  |  |
| DKIQELKKENEELERKIWELKKENQELEQ [P8bHq] |  |  |  |  |  |  |  | -0.229 | -1.36 |

From PMC10397247
